The values that follow come from patent publication US20220348685A1 (ACCELERON PHARMA, published 2022).

First the molecules themselves.
B1: M01 (antibody, V domains shown)
VH: QLQLQESGPGLVKPSETLSLTCTVSGGSISSSAYYWAWIRQPPGKGLEWIGSIYLSGSTTYNPSLKSRVTISVDTSKNQFSLKLSSVTAADTAVYYCARDGRYQSRSPDYYYGMDVWGQGTTVTVSS
VL: EIVLTQSPGTLSLSPGERATLSCRASQSVSDNYLAWYQQKPGQAPRLLIYGASNIATGIPDRFSGSGSGTDFTLTISRLEPEDFAVYYCASVFSYPFTFGGGTKVEIK
notes: Kappa light chain is implied by the anti-kappa reagent and KappaSelect; In SPR the antibody was captured on a custom FAB chip; also called ALK7 mAb M01
B2: N02 (antibody, V domains shown)
VH: B1 VH
VL: B1 VL with D31S, N32S, N54S, I55T, T57Y, A90Q, S91Q, V92L, F93V, S94A
B3: P03 (antibody, V domains shown)
VH: QVQLVQSGAEVKKPGASVKVSCKASGYTFAGYNMHWVRQAPGQGLEWVGIINPNSGWTNYAQKFQGRVTMTRDTSVSAAYMELSRLRSDDTAVYYCARDPVGARYEVFDYWGQGTLVTVSS
VL: EIVMTQSPATLSVSPGERATLSCQASQSVSSNLAWYQQKPGQAPRLLIYGASTIATGIPARFSGSGSGTEFTLTISSLQSEDFAVYYCQQAYAFPLTFGGGTKVEIK
B4: Q04 (antibody, V domains shown)
VH: B3 VH
VL: B3 VL with Q24K, I54R, Y92V, A93K

Numbering of substitutions follows the chain as printed.

The target of this test is T1, human ALK7-EK-Fc comprising protein (human, UniProt Q8NER5 22-113).
T1 construct: also called ALK7-Fc comprising protein; Human ALK7-Fc comprising protein; not shown: 'EK' segment between ALK7 and Fc; Fc portion
T1 sequence: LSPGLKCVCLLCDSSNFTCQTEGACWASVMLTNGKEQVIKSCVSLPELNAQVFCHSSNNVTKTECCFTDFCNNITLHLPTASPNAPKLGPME
Description: SPR (Biacore T100/T200), antibody captured on FAB chip, ALK7-Fc protein as analyte, 1:1 model. How it is done:
Experiments were performed using a Biacore T100/T200 biosensor (Biacore/GE Healthcare) at 25 and 37° C. ALK7 antibodies were captured on custom made FAB chip. A concentration series of ALK7-Fc comprising protein was injected over the flow cells at a flow rate of […]. To obtain kinetic rate constants the corrected data were fit to a 1:1 interaction model using BiaEvaluation software (GE Healthcare). The equilibrium binding constant KD was determined by the ratio of binding rate constants kd/ka.
As usually defined, the Kd is the concentration at which binding is half-saturated. A word on the koff: it is the rate constant with which the complex falls apart. A high value points to a short-lived complex. What is called kon is a measure of how fast the partners come together. The low end stands for slower complex formation, the high end for faster complex formation. B1: the affinity, expressed as Kd, was 1 nM; the koff was determined as 4.32e-05 s⁻¹; the kon was determined as 43100 M⁻¹ s⁻¹.
The like results for B2 were, in that order, 0.87 nM, 5.2e-05 s⁻¹ and 59800 M⁻¹ s⁻¹.
The like results for B3 were, in that order, 0.39 nM, 1.43e-05 s⁻¹ and 36600 M⁻¹ s⁻¹.
The molecule B4 gave an equilibrium dissociation constant (Kd) of 1.42 nM, a koff of 4.7e-05 s⁻¹ and a kon of 33100 M⁻¹ s⁻¹.
